± gives the uncertainty stated by the source.

Among the data in the supplement of paper PMC12042874 are amyloid nucleation score values, retold here.

This data set can be described thus: amyloid nucleation score (Sup35N fusion, yeast selection) (log enrichment); library NNK3; higher = more nucleation; inactive = no reads after selection. Summed up: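 Sup35N was fused to peptides of 20 random codons and expressed in psi-negative yeast, which were induced with 100 μM copper sulfate for 24 hours and then grown on medium lacking adenine and uracil for 7 days at 30°C. Plasmid inserts from input and output were sequenced on Illumina. The nucleation score is the DiMSum log enrichment of output over input reads, centred on the mode score of non-aggregating sequences. Sequences with under 100 input reads were left out, and random libraries had three technical output replicates.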
With FFKYYG, the amyloid nucleation score entry was “inactive”.

YGTNQMTLPKCRYWGFYREE showed an amyloid nucleation score of -0.149 ± 0.7.

Take KKRGHEWFVIIKSARGASKR: the amyloid nucleation score result is “inactive”.

Regarding GFKDLWYCDGF, the amyloid nucleation score entry is “inactive”.

Take INPRSYADLYYIRFNHWWLL: the amyloid nucleation score result was “inactive”.

For the substance MILSNISGSRLIGSSNHSAF, the amyloid nucleation score entry was “inactive”.

On to PLFWNGSC, for which the amyloid nucleation score result is “inactive”.

Substance RLGFRRIRIIRSSGFSEEWH had an amyloid nucleation score of 0.224 ± 0.39.

Turning to GISRLFVGMKKAVTWSAKER, the amyloid nucleation score entry is “inactive”.

The substance IRVTRIRAKVTLTTNVMWVP came in with an amyloid nucleation score of 0.463 ± 0.29.

Consider KFIGFYVWVYVCHCVVIRAY, for which the amyloid nucleation score result is “inactive”.

For NMSTAWRRGNPVCTDSKYRV, the amyloid nucleation score entry was “inactive”.

For the substance RNLSKIRMPMVVNNTEY, the amyloid nucleation score result is “inactive”.

For WSQEATTM, the amyloid nucleation score entry is “inactive”.

For YVTTMFEITRGRSWYSRSLG, the amyloid nucleation score was found to be 0.611 ± 0.21.

LAIILLFAVRLCRDANGDAM: the amyloid nucleation score result is “inactive”.

Turning to ACGGCHYKRAYMQLGLMRLK, the amyloid nucleation score entry is “inactive”.

Turning to IRRLSSVCMGCSWYL, the amyloid nucleation score entry is “inactive”.

MYETVR: the amyloid nucleation score entry was “inactive”.

On to FYRSLGMYRDWTMSIFGKYL, for which the amyloid nucleation score entry was “inactive”.

In the case of GPYNCFVH, the amyloid nucleation score result was “inactive”.

Regarding EMCRN, the amyloid nucleation score result was “inactive”.

CVTVNIELLTWITACGNFTL gave an amyloid nucleation score of 1.62 ± 0.075.

Take VSVLRWLKRLDLHCGGV: the amyloid nucleation score result is “inactive”.

Turning to YFQLLVSLVSVFH, the amyloid nucleation score entry was “inactive”.

On to SYTFVCRPTFYVCFCGSMCF, for which the amyloid nucleation score is 2.45 ± 0.065.

For DSFSTDCVFYEIMCSEVRLA, the amyloid nucleation score entry was “inactive”.

Take FITGCSYVAYFMIAA: the amyloid nucleation score entry is “inactive”.

As for IQLAYIPEMALPTSWARVSG, the amyloid nucleation score result was “inactive”.

For TCDIRCCTASPLYNRVM, the amyloid nucleation score was found to be 0.129 ± 0.47.

In turn, IKDIFACSMCFTTKSNAAHY came in with an amyloid nucleation score of 3 ± 0.053.

Turning to LACSSSCILSPVVGIGFSWN, the amyloid nucleation score came out at 1.89 ± 0.055.

On to PVARRVMDYKAGSRV, for which the amyloid nucleation score result was “inactive”.

FRPAN returned an amyloid nucleation score of -0.286 ± 0.78.

Take LFARRVGSYCVIVCQPVLWE: the amyloid nucleation score entry was “inactive”.

On to NYLGWPDIKCHGYVDSFLFV, for which the amyloid nucleation score entry was “inactive”.

Turning to LRCGSSSDELCMREWFRVDL, the amyloid nucleation score entry was “inactive”.

For the substance YYWMAWRTLGAVRAG, the amyloid nucleation score was -0.458 ± 0.5.

On to RPDCEYGSS, for which the amyloid nucleation score result is “inactive”.

Turning to NRRYFVELCGGNFM, the amyloid nucleation score entry is “inactive”.

Consider INYCALARFLMNECLCPICT, for which the amyloid nucleation score entry was “inactive”.

For VLAMCVYSACMWFGNNAMLH, the amyloid nucleation score entry was “inactive”.

For EISSVAAYGSN, the amyloid nucleation score entry was “inactive”.

Take VTLCVVEPDCWRIGG: the amyloid nucleation score result was “inactive”.

As for YMVVFSVNDRMFVPFY, the amyloid nucleation score was 0.926 ± 0.15.

CTLRTVCHTGLLWVTFHRQY: the amyloid nucleation score was determined as 0.675 ± 0.18.

As to LRMSTSGIPYYMSGMSYYNI, the amyloid nucleation score result was “inactive”.

Turning to AFKLYWKYCRYNPWVRNR, the amyloid nucleation score entry was “inactive”.

For the substance SISTQCWSPYVAFHSWKTH, the amyloid nucleation score is 0.416 ± 0.79.

The substance PVVQCNLFFVMVYTLGIRCV displayed an amyloid nucleation score of -0.579 ± 0.98.

FSSQYMSCIVRRHGGNLDAC yielded an amyloid nucleation score of 0.033 ± 0.39.

In the case of NRQMLYILEINSIIFIQSFC, the amyloid nucleation score was determined as 0.903 ± 0.16.

As for QWLAEGYT, the amyloid nucleation score result is “inactive”.

In the case of FYLIRKTIFLGSISLVWYGV, the amyloid nucleation score entry was “inactive”.

Take TSRNESHTSDYSLLNHNSLL: the amyloid nucleation score result is “inactive”.

QQNQVSIDGCWV: the amyloid nucleation score entry was “inactive”.

As to CINVFMQEPPPINIRWNCRE, the amyloid nucleation score turned out to be 2.54 ± 0.061.

HLVYWVIHDLYMTI showed an amyloid nucleation score of 0.303 ± 0.33.

Turning to VFMGQDLWMSLGAEDEDLAW, the amyloid nucleation score result was “inactive”.

As to FLCLSKGTGVAISKMSQN, the amyloid nucleation score result is “inactive”.

As to FVSVLACSDKLGK, the amyloid nucleation score result is “inactive”.

Regarding SMNKFKF, the amyloid nucleation score entry was “inactive”.

For the substance LFALSWTS, the amyloid nucleation score amounted to 0.182 ± 0.35.

For SVIRWFVTLWLGEHLRASDT, the amyloid nucleation score result is “inactive”.

Turning to NWHDYSSGVGLKIRGECMNV, the amyloid nucleation score result is “inactive”.

MHPCSL: the amyloid nucleation score result is “inactive”.

In the case of TLSWLRPPPSRPLLFHEVSW, the amyloid nucleation score is -0.246 ± 0.8.

As for LDVLKMGIVV, the amyloid nucleation score entry is “inactive”.

With LVFSRCWFSMTVEYISYSVD, the amyloid nucleation score result was “inactive”.

Consider NTRKHFVSWCAHPDEDSSFM, for which the amyloid nucleation score result is “inactive”.

For the substance HMRIGNESWVIGCQ, the amyloid nucleation score is 0.132 ± 0.75.

With RYLSMELSQEYLFLVVSLVW, the amyloid nucleation score entry is “inactive”.

With GRAHQFLISSFLSPGGPLMR, the amyloid nucleation score result was “inactive”.

Take RIYDYFLFSCYRV: the amyloid nucleation score entry was “inactive”.

GDLVSIWAMRFELRKSKEMR: the amyloid nucleation score result was “inactive”.

Take EGPNTVNCPTAS: the amyloid nucleation score result was “inactive”.

On to INKSWGVFP, for which the amyloid nucleation score came to 0.687 ± 0.18.

Regarding LCRLPLDQTSKPIVTTYAGR, the amyloid nucleation score result was “inactive”.

Consider LRFVSKLWWFISMSSRSHLH, for which the amyloid nucleation score result is “inactive”.

As for ATKYDFYMVNKRNFWKSRGF, the amyloid nucleation score entry is “inactive”.

As for HSLVVPIPSPILRVLKE, the amyloid nucleation score result was “inactive”.

In the case of SYMQMTELKEAP, the amyloid nucleation score entry is “inactive”.

As to FYMFDSRLLFWRYCCWKFSY, the amyloid nucleation score entry is “inactive”.

Turning to MVIYSLHRTLIIICGRANLT, the amyloid nucleation score result is “inactive”.

In the case of RLSNVSTMGGMRIPDLLEM, the amyloid nucleation score entry is “inactive”.

LFIMFCFGIRCLEPDIRHCY: the amyloid nucleation score result was “inactive”.

As for HPVYMVSTRWRRGGSDWV, the amyloid nucleation score result was “inactive”.

For ISIPLLIMLPELGTASMVNG, the amyloid nucleation score result was “inactive”.

For VRKKCLDPDGFLSRLGPAFD, the amyloid nucleation score was -0.429 ± 0.91.

Turning to GTLCVGPLKASCETGKLKFF, the amyloid nucleation score entry is “inactive”.

With TVGVKKYAMGRRYIV, the amyloid nucleation score entry was “inactive”.

For RIWPSGSC, the amyloid nucleation score entry was “inactive”.

As to FEYLSMYELGISVE, the amyloid nucleation score entry was “inactive”.

With LYHFANIFSFC, the amyloid nucleation score entry is “inactive”.

RLCLFLDPIY: the amyloid nucleation score entry was “inactive”.

Regarding HILVKITR, the amyloid nucleation score came out at 0.359 ± 0.71.

Regarding VDYLRVLWQAQFGNFELWSR, the amyloid nucleation score result was “inactive”.

Take YNVIT: the amyloid nucleation score entry is “inactive”.

Turning to SDISRQYICVMYVSRLRG, the amyloid nucleation score entry is “inactive”.

YCYAMS: the amyloid nucleation score result is “inactive”.

As to SSERSGRRRNWSVRSCLVGQ, the amyloid nucleation score result was “inactive”.

Take WGTVMTLSCVALEVYFSLRV: the amyloid nucleation score entry is “inactive”.

Take MILSESKYGFTFRLRVARQV: the amyloid nucleation score entry is “inactive”.

Regarding YFFVHEKCQVGGRGGKLAKK, the amyloid nucleation score result was “inactive”.

Turning to RNISDMEPS, the amyloid nucleation score result is “inactive”.

With MRRKDKNIRVDYRVAGGYRD, the amyloid nucleation score result was “inactive”.

In the case of SRIIVRN, the amyloid nucleation score result was “inactive”.

Regarding FRQLQGTSMLYLATPWS, the amyloid nucleation score entry is “inactive”.

In the case of CADQWS, the amyloid nucleation score result was “inactive”.

Turning to DSNGYKEGVDQNSGAKNTNK, the amyloid nucleation score result is “inactive”.

For LWLGWNRKWQFSWPAAGRFL, the amyloid nucleation score entry was “inactive”.

For the substance NLNWGTLSTRFYCVEDS, the amyloid nucleation score entry was “inactive”.

Turning to FIPYYRCDQMLSGILVRFFS, the amyloid nucleation score entry is “inactive”.

As to VKLMASEHLSCIGRI, the amyloid nucleation score entry is “inactive”.

Turning to CILYLHIAALVLLI, the amyloid nucleation score was -1.33 ± 2.5.

On to LDSGISNHPNFIFTHTEFIN, for which the amyloid nucleation score entry is “inactive”.

As for RWPKIASCFSTHPWSGRYMW, the amyloid nucleation score entry is “inactive”.

In the case of SYLIGIWGFWINGIVFAVCA, the amyloid nucleation score entry was “inactive”.

For FVYFFCVSLTSSSPSDCDWP, the amyloid nucleation score amounted to 1.6 ± 0.069.

In the case of NVIYFHTQGMY, the amyloid nucleation score result is “inactive”.

In the case of FVTFGYQWYRRVAGALGCLE, the amyloid nucleation score amounted to 0.37 ± 0.57.

As for DAGELNILI, the amyloid nucleation score entry is “inactive”.

With SNYVKKQIALS, the amyloid nucleation score result is “inactive”.

Take FYMAKRICKVQHGVNGPYAK: the amyloid nucleation score result is “inactive”.

The substance QTGCIPNER came in with an amyloid nucleation score of 1.05 ± 0.23.

Regarding RYEFS, the amyloid nucleation score entry was “inactive”.

In the case of KSFLLPCFCRTLWTWMHRHA, the amyloid nucleation score was determined as 1.11 ± 0.14.

Take LMIWVSDLSE: the amyloid nucleation score result is “inactive”.

On to GLANNYGQYRITSRAKLPRQ, for which the amyloid nucleation score entry is “inactive”.

Turning to FFNSVMIYGWS, the amyloid nucleation score was 0.07 ± 0.3.

For CFLSWWLRDLVLSSCSTYVD, the amyloid nucleation score entry was “inactive”.

In the case of ASYYVKEFVQREHSIYAN, the amyloid nucleation score result was “inactive”.

In the case of YIFVALYPSHT, the amyloid nucleation score came to 0.443 ± 0.28.
